This note sets out measurements from article PMC5358979.

Data set [1] concerns FEN1 WT (Homo sapiens). As to the kind of experiment: smFRET. The following applies: smFRET reaction buffer with CaCl2 (binding) or MgCl2 (cleavage), SPR in same buffer with CaCl2, no oxygen scavenger, salt, pH and temperature not given in the …; for pKd: Ca2+, Kd-bending.
In data set [2] the test system is FEN1 WT (Homo sapiens). Put plainly: smFRET dwell-time kinetics. The following applies: smFRET reaction buffer with CaCl2 (binding) or MgCl2 (cleavage); SPR in same buffer with CaCl2, no oxygen scavenger; salt, pH and temperature not given in the ….

pKd: −log10 of the molar value.

On to DF-7,1mismatch(1nt), for which the binding signal (fold Kd-bending increase vs DF-6,1) in the data set with FEN1 WT (Homo sapiens) [1] is 7. Consider EQ DF-6,1Flap, for which the pKd – broadly, −log10 of the Kd, conventionally taken in molar units – in the data set with FEN1 WT (Homo sapiens) [2] is 8.49. For the substance NonEQ DF-6,1Flap, the pKd in the data set with FEN1 WT (Homo sapiens) [1] is 8.41. Still for that read-out and setting: with NonEQ DF-6,1dsDNA the figure was 8.34.

As for SF-6,0Flap, the pKd in the data set with FEN1 WT (Homo sapiens) [2] is 6.78.
